# Laboratory results taken from IntAct's records for PubMed 15147197.
# B1: Ferredoxin--NADP reductase, leaf isozyme, chloroplastic (Pisum sativum (Garden pea)), P10933 (parent)
# chain: MAAAVTAAVSLPYSNSTSLPIRTSIVAPERLVFKKVSLNNVSISGRVGTIRAQVTTEAPAKVVKHSKKQDENIVVNKFKPKEPYVGRCLLNTKITGDDAPGETWHMVFSTEGEVPYREGQSIGIVPDGIDKNGKPHKLRLYSIASSAIGDFGDSKTVSLCVKRLVYTNDAGEVVKGVCSNFLCDLKPGSEVKITGPVGKEMLMPKDPNATVIMLGTGTGIAPFRSFLWKMFFEKHEDYQFNGLAWLFLGVPTSSSLLYKEEFEKMKEKAPENFRLDFAVSREQVNDKGEKMYIQTRMAQYAEELWELLKKDNTFVYMCGLKGMEKGIDDIMVSLAAKDGIDWIEYKRTLKKAEQWNVEVY
# B2: Ferredoxin--NADP reductase (Anabaena sp. (strain PCC 7119)), P21890 (parent)
# chain: MSNQGAFDGAANVESGSRVFVYEVVGMRQNEETDQTNYPIRKSGSVFIRVPYNRMNQEMQRITRLGGKIVTIQTVSALQQLNGRTTIATVTDASSEIAKSEGNGKATPVKTDSGAKAFAKPPAEEQLKKKDNKGNTMTQAKAKHADVPVNLYRPNAPFIGKVISNEPLVKEGGIGIVQHIKFDLTGGNLKYIEGQSIGIIPPGVDKNGKPEKLRLYSIASTRHGDDVDDKTISLCVRQLEYKHPESGETVYGVCSTYLTHIEPGSEVKITGPVGKEMLLPDDPEANVIMLATGTGIAPMRTYLWRMFKDAERAANPEYQFKGFSWLVFGVPTTPNILYKEELEEIQQKYPDNFRLTYAISREQKNPQGGRMYIQDRVAEHADELWQLIKNQKTHTYICGLRGMEEGIDAALSAAAAKEGVTWSDYQKDLKKAGRWHVETY
# Variants of: B1
# Details: with fer1_pea PETF
row,Variant,effect of a mutation on the interaction
1,MAAAVTAAVSLPYSNSTSLPIRTSIVAPERLVFKKVSLNNVSISGRVGTIRAQVTTEAPAKVVKHSKKQDENIVVNKFKPKEPYVGRCLLNTKITGDDAPGETWHMVFSTEGEVPYREGQSIGIVPDGIDKNGKPHKLRLYSIASSAIGDFGDSKTVSLCVKRLVYTNDAGEVVKGVCSNFLCDLKPGSEVKITGPVGKEMLMPKDPNATVIMLGTGTGIAPFRSFLWKMFFEKHEDYQFNGLAWLFLGVPTSSSLLYKEEFEKMKEKAPENFRLDFAVSREQVNDKGEKMYIQTRMAQYAEELWELLKKDNTFVYMCGLKGMEKGIDDIMVSLAAKDGIDWIEYKRTLKKAEQWNVEVS [Y360S],increasing interaction
2,MAAAVTAAVSLPYSNSTSLPIRTSIVAPERLVFKKVSLNNVSISGRVGTIRAQVTTEAPAKVVKHSKKQDENIVVNKFKPKEPYVGRCLLNTKITGDDAPGETWHMVFSTEGEVPYREGQSIGIVPDGIDKNGKPHKLRLYSIASSAIGDFGDSKTVSLCVKRLVYTNDAGEVVKGVCSNFLCDLKPGSEVKITGPVGKEMLMPKDPNATVIMLGTGTGIAPFRSFLWKMFFEKHEDYQFNGLAWLFLGVPTSSSLLYKEEFEKMKEKAPENFRLDFAVSREQVNDKGEKMYIQTRMAQYAEELWELLKKDNTFVYMCGLKGMEKGIDDIMVSLAAKDGIDWIEYKRTLKKAEQWNVEVW [Y360W],increasing interaction

# Variants of: B2
# Details: with fer1_nosso petF
row,Variant,effect of a mutation on the interaction
1,Y440F,increasing interaction

# Variants of: B2
# Details: with fer1_nosso petF
# Remark: another data set of the same source
row,Variant,effect of a mutation on the interaction
1,Y440W,increasing interaction
2,Y440S,increasing interaction
